Read-outs that look alike come from different tables or passages of the source. No end group written: not given here.
B1: mature human Adrenomedullin (Human ADM 1-52) (peptide)
peptide: YRQSMNNFQGLRSFGCRFGTCTVQKLAHQIYQFTDKDKDNVAPRSKISPQGY-NH2
modifications: ends and bridges not checked
B2: Mouse ADM 1-50 (peptide)
peptide: YRQSMNQGSRSNGCRFGTCTFQKLAHQIYQLTDKDKDGMAPRNKISPQGY-NH2
modifications: ends and bridges not checked

Legend:
[1] = molecular target: T1, human recombinant adrenomedullin receptor (CRLR+RAMP3) (human); test: cell-based or functional assay
T1 sequence (Q16602 whole entry, chain 1 of 2): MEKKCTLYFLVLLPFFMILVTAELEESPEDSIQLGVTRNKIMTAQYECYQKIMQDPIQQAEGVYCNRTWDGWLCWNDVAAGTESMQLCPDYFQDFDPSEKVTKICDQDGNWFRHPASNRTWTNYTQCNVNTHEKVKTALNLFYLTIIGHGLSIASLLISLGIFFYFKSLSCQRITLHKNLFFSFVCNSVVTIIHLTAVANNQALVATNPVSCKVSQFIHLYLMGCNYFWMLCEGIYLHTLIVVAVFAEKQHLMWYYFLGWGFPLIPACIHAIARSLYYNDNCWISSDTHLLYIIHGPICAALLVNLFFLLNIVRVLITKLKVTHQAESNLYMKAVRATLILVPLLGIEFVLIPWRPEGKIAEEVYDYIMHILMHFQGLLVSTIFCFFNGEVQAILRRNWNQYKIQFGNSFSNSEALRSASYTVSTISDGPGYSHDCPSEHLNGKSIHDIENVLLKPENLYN
T1 sequence (O60896 whole entry, chain 2 of 2, further chain): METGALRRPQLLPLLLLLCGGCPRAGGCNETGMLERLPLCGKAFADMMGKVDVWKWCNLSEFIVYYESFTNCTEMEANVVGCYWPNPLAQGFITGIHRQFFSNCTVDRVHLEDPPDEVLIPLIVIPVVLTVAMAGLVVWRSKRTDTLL

[2] = molecular target: T1, human recombinant adrenomedullin …; test: cell-based or functional assay; remark: listed apart in the source

| Binder | EC50 (read off the curve); cAMP HTRF assay, CHO-K1 cells with human CRLR+RAMP3 [1] [nM] | EC50 (read off the curve); cAMP HTRF assay, CHO-K1 cells with human CRLR+RAMP3 [2] [nM] |
| --- | --- | --- |
| B1 | ~1 |  |
| B2 |  | ~0.08 |

— patent publication US20210285949A1 (SPHINGOTEC, published 2021)
